Experimental data: the RNAGym collection of RNA variant scans (doi:10.7554/elife.80360)

B1: HDV Ribozyme (parent)
chain: GGCCGGCAUGGUCCCAGCCUCCUCGCUGGCGCCGGCUGGGCAACAUUCCGAGGGGACCGUCCCCUCGGUAAUGGCGAAUGGGACCCA

Variants of: B1
Assay: self-cleavage, relative activity (ratio to wild type); higher = more cleavage; co-transcriptional

| Variant | self-cleavage |
| --- | --- |
| A8C C49A | 0.9 |
| A8U A45G | 0.489 |
| U20A G52C | 0.0449 |
| G1A C21G | 0.0489 |
| C33G G50C | 0.246 |
| C7A C33U | 0.148 |
| G2C A42G | 0.13 |
| A42U G76U | 0.745 |
| C3U G11C | 0.191 |
| A8G C44U | 0.475 |
| U9A U27A | 0.9 |
| G53C G68C | 0.372 |
| C3U C44U | 0.378 |
| C58G A77U | 0.388 |
| G67A G73U | 0.227 |
| G35C G59A | 0.256 |
| U9C G68C | 0.89 |
| C13G C19A | 0.0437 |
| C13G C19U | 0.0396 |
| G10C C18U | 0.396 |
| G40C C84A | 0.0831 |
| C4A G29U | 0 |
| C32U C61G | 0.791 |
| C3A G52U | 0.404 |

| Variant | self-cleavage |
| --- | --- |
| C48U U69C | 1.07 |
| U60A C85G | 0.673 |
| G10U G68U | 0.727 |
| G6A U12G | 0.415 |
| A56U C61U | 0.755 |
| C3U C36A | 0.132 |
| C13U C30G | 0.198 |
| C7G G11C | 0 |
| G1A G39A | 0.141 |
| U37G U60A | 0.0504 |
| G11A G31U | 0.0475 |
| G38A C64G | 0.142 |
| G29C A78C | 0.0519 |
| G1C G81A | 0 |
| G50C G53U | 0.338 |
| G6U C41G | 0.237 |
| G35U U47G | 0.295 |
| U12C C33U | 0.32 |
| U60A A87C | 1 |
| G1U C32U | 0.532 |
| C61G G80C | 0.348 |
| U72G G82C | 0.453 |
| C18G G35C | 0.104 |
| C30U G67U | 0.75 |

| Variant | self-cleavage |
| --- | --- |
| C64G U72G | 0.745 |
| G52C A56C | 0.95 |
| C62A A70C | 0.886 |
| U72C G74U | 0.584 |
| C26A C49G | 0.867 |
| U9G C64A | 0.831 |
| C14G C44U | 0.208 |
| G35U C85A | 0.373 |
| C13U C32G | 0.101 |
| C4G G50A | 0.415 |
| G82U A87C | 0.406 |
| A43G U69A | 0.623 |
| G11C G50A | 0.271 |
| C14U G25C | 0.199 |
| G2U A51G | 0.0683 |
| U12A G67C | 0.244 |
| G29A G54U | 0.119 |
| A8G G76U | 0.831 |
| C21A A78U | 0.0573 |
| C21A A78G | 0.189 |
| C18U G76U | 1.05 |
| G5C C63G | 0 |
| C22A C49U | 0.338 |
| C57A C66G | 0.985 |

| Variant | self-cleavage |
| --- | --- |
| G25C A51U | 0.148 |
| G10C G52U | 1.03 |
| A42C U65G | 0.831 |
| C4G G34A | 0.161 |
| U47A C84U | 0.735 |
| G55C C86G | 1.09 |
| C44G G52U | 0.727 |
| G25A U37G | 0.104 |
| C26G | 0.952 |
| C14G G67A | 0.453 |
| C3G A83U | 0.0678 |
| A56G G73C | 0.38 |
| G68A C84G | 0.475 |
| U46C G55U | 0.831 |
| C4G A78U | 0.116 |
| U12G A43G | 0.237 |
| C24A G31C | 0.0583 |
| G53U A56G | 1.03 |
| G2U G68U | 0.134 |
| U37G C49G | 0.196 |
| G68U G80C | 0.253 |
| G6C G35A | 0.0755 |
| A8G G74U | 0.111 |
| C33A G34C | 0.108 |

| Variant | self-cleavage |
| --- | --- |
| G54U C84G | 0.529 |
| C30A C62G | 0.321 |
| G11C G38U | 0.0845 |
| C36G U72G | 0.151 |
| A42G C62G | 0.469 |
| G34C G35C | 0.246 |
| U37A U47G | 0.222 |
| G52C A78G | 0.787 |
| C18G C75G | 0.229 |
| U65C A78G | 0.731 |
| C22A C57A | 0.208 |
| A16G C26U | 0.86 |
| C32G G38U | 0.089 |
| G68A U79G | 0.584 |
| U27A A42G | 0.361 |
| C58A G81A | 0.514 |
| G34A G73A | 0.128 |
| G67A U72C | 0.539 |
| C64U A71U | 1.12 |
| C36U C63U | 0.904 |
| G50U C85U | 1.02 |
| C32U G34A | 0.0302 |
| C15A G17U | 0.252 |
| C18G C22U | 0.0504 |

| Variant | self-cleavage |
| --- | --- |
| U20G C49G | 0.361 |
| A43C C84A | 0.332 |
| C62U U65G | 0.631 |
| U9G U65G | 0.782 |
| U20G C61U | 0.131 |
| C13A G52A | 0.229 |
| G34A A70U | 0.132 |
| G5C C48G | 0.0755 |
| C3U G67U | 0.752 |
| C22U C24A | 0.302 |
| U47A A56G | 0.965 |
| U46A A87C | 0.744 |
| G5A C49G | 0.237 |
| G6C C85A | 0.0791 |
| C64U U79A | 0.597 |
| C64U C75G | 0.106 |
| C41G A83C | 0.123 |
| G2U C18U | 0.0755 |
| G28A C41G | 0.151 |
| G38C G73A | 0.185 |
| G2A G53A | 0.168 |
| C36A A51C | 0.277 |
| G31U C44G | 0.0665 |
| G40U C44G | 0.194 |

| Variant | self-cleavage |
| --- | --- |
| G29C A83G | 0.0863 |
| G5A C36G | 0 |
| G50U A71U | 1.02 |
| C30G A71G | 0.0339 |
| C26A C66A | 0.909 |
| C36A G54A | 0.0804 |
| C15U C84U | 0.962 |
| C36U C86G | 0.703 |
| G2C A77U | 0.119 |
| C4A C13G | 0.0692 |
| C15U C64G | 0.962 |
| C57A U79G | 0.831 |
| G1C C3U | 0.34 |
| C48A G54C | 1.17 |
| U27C U37G | 0.0923 |
| G38C G81C | 0.0354 |
| U9C G34C | 0.361 |
| A51G A78U | 0.156 |
| G5C C85U | 0.277 |
| G5C C18U | 0.142 |
| C33U G68C | 0.789 |
| U47C C48A | 0.875 |
| C58U G59A | 1.12 |
